Experimental findings from patent publication US20180164286A1 (MEDICAL DIAGNOSTIC LABORATORIES, published 2018) are described below.

In assay [1] the target is Small BiT (SB)-eIF4E, full-length. In words: cell-based or functional assay.
Assay [2] has as its target T1, Small BiT (SB)-eIF4E, full-length.
T1 construct: N-terminal Small BiT fusion of full-length eIF4E (cDNA Origene RC207333), expressed intracellularly in HEK293, MCF-7 or HEK293-derived clones; also called Full-length SB-eIF4E; SB-linked eIF4E
In words: split-luciferase luminescence in 3A1 cell line stably expressing SB-eIF4E.

Assay [3] has the same target. In words: split-luciferase (NanoBiT) luminescence in HEK293 cells.

B1: 4E-BP1 with C-terminal LB at residue 75 (other, UniProt Q13541 1-75, looked up, not shown: large carriers)
chain: MSGGSSCSQTPSRAIPATRRVVLGDGVQLPPGDYSTTPGGTLFSTTPGGTRIIYDRKFLMECRNSPVTKTPPRDL
As for B1, in assay [1], the “fold-change of split-luciferase luminescence, rapamycin (50 nM, 1 h) over vehicle; HEK293 cells” value stood at 0.83 fold.

B2: Large BiT (LB)-4E-BP2, full-length (other)
chain: MVFTLEDFVGDWEQTAAYNLDQVLEQGGVSSLLQNLAVSVTPIQRIVRSGENALKIDIHVIIPYEGLSADQMAQIEEVFKVVYPVDDHHFKVILPYGTLVIDGVTPNMLNYFGRPYEGIAVFDGKKITVTGTLWNGNKIIDERLITPDGSMLFRVTINSGSSGGGGSGGGGSSGMSSSAGSGHQPSQSRAIPTRTVAISDAAQLPHDYCTTPGGTLFSTTPGGTRIIYDRKFLLDRRNSPMAQTPPCHLPNIPGVTSPGTLIEDSKVEVNNLNNLNNHDRKHAVGDDAQFEMDI
Consider B2, for which, in assay [1], the “fold-change of split-luciferase luminescence, rapamycin (50 nM, 1 h) over vehicle; HEK293 cells” value came to 1.84 fold.

B3: R62P LB-4E-BP2 (other)
chain: MVFTLEDFVGDWEQTAAYNLDQVLEQGGVSSLLQNLAVSVTPIQRIVRSGENALKIDIHVIIPYEGLSADQMAQIEEVFKVVYPVDDHHFKVILPYGTLVIDGVTPNMLNYFGRPYEGIAVFDGKKITVTGTLWNGNKIIDERLITPDGSMLFRVTINSGSSGGGGSGGGGSSGMSSSAGSGHQPSQSRAIPTRTVAISDAAQLPHDYCTTPGGTLFSTTPGGTRIIYDRKFLLDPRNSPMAQTPPCHLPNIPGVTSPGTLIEDSKVEVNNLNNLNNHDRKHAVGDDAQFEMDI
notes: Patient (COSMIC) mutation made in LB-4E-BP2 as a linear expression cassette; The residue number counts on 4E-BP2 itself; also called 4EBP2-R62P
Consider B3, for which the binding result in assay [2] is “no binding”.

B4: D55Y LB-4E-BP2 (other)
chain: MVFTLEDFVGDWEQTAAYNLDQVLEQGGVSSLLQNLAVSVTPIQRIVRSGENALKIDIHVIIPYEGLSADQMAQIEEVFKVVYPVDDHHFKVILPYGTLVIDGVTPNMLNYFGRPYEGIAVFDGKKITVTGTLWNGNKIIDERLITPDGSMLFRVTINSGSSGGGGSGGGGSSGMSSSAGSGHQPSQSRAIPTRTVAISDAAQLPHDYCTTPGGTLFSTTPGGTRIIYYRKFLLDRRNSPMAQTPPCHLPNIPGVTSPGTLIEDSKVEVNNLNNLNNHDRKHAVGDDAQFEMDI
notes: Patient (COSMIC) mutation made in LB-4E-BP2 as a linear expression cassette; The residue number counts on 4E-BP2 itself; also called 4EBP2-D55Y
Consider B4, for which the binding result in assay [2] was “no binding”.

B5: LB-4E-BP1 with T37E, T46E, S65E, and T70E (other)
chain: MVFTLEDFVGDWEQTAAYNLDQVLEQGGVSSLLQNLAVSVTPIQRIVRSGENALKIDIHVIIPYEGLSADQMAQIEEVFKVVYPVDDHHFKVILPYGTLVIDGVTPNMLNYFGRPYEGIAVFDGKKITVTGTLWNGNKIIDERLITPDGSMLFRVTINSGSSGGGGSGGGGSSGMSGGSSCSQTPSRAIPATRRVVLGDGVQLPPGDYSTEPGGTLFSTEPGGTRIIYDRKFLMECRNEPVTKEPPRDLPTIPGVTSPSSDEPPMEASQSHLRNSPEDKRAGGEESQFEMDI
notes: All four mTOR phosphorylation sites changed to glutamate on the LB-4E-BP1 plasmid; The residue numbers count on 4E-BP1 itself; also called T37/46/70E/S65E (all 4 sites mutated); all E
Turning to B5, the binding result in assay [3] is “no binding”.
